Experimental data from patent publication US5098841A, “Process for the preparation of hydroxy acids” (CIBA-GEIGY Corporation, priority 1988, dated 1992).

How the values were obtained:
[1] = Specific activity of commercially available dehydrogenases based on 2-keto-4-phenylbutyric acid; format: biochemical; conditions: substrate 2-keto-4-phenylbutyric acid
From the text: (§1) The continuous reaction method, especially in an enzyme membrane reactor, is preferred for both processes.
(§2) U--unit of enzyme activity (under defined reaction conditions, 1 U produces a substance conversion of 1 μmol/min)

[2] = Specific activity of commercially available dehydrogenases based on pyruvate; format: biochemical; conditions: substrate pyruvate
From the text: as §1, §2

L-LDH bovine heart Fluka 61310: commercially available L-lactate dehydrogenase from bovine heart, Fluka 61310
U/mg protein based on 2-keto-4-phenylbutyric acid [1]: 0.07 U/mg protein
U/mg protein based on pyruvate [2]: 300 U/mg protein
